Source: US9333240B2, “Compounds for improving nutritional status, cognition and survival” (YISSUM RESEARCH DEVELOPMENT COMPANY OF THE HEBREW …, priority 2005, dated 2016)
Entries after “also recorded” stand apart in the source; their conditions may differ.

Columns and labels:
[1] = tested on: mice; assay: Eight-arm maze in TAA model of hepatic encephalopathy; type: in vivo; settings: TAA treated mice, 1 mg/kg Leptin daily for 5 days
Method: FIG. 11. […] Mice were treated with TAA, then 1 mg/kg Leptin was administered daily for 5 days. Cognitive function was evaluated in the eight arm maze.
The animals were placed in an eight-arm maze, which is a scaled-down version of that developed for rats (Randt et al, (1971) Science 172, 489-499; Ziv et al (1994) Neuroscience Lett, 170, 136-140). We used water deprivation achieved by limiting water consumption overnight and a reward of 50 μl of water presented at the end of each arm. The mice were tested until they made entries into all eight arms or until they completed 24 entries, whichever came first. […] Maze performance was calculated each day for five consecutive days. Results were presented as area under the curve (AUC) utilizing the formula: (day 2+day 3+day 4+day 5)−4*(day 1).

[2] = tested on: mice; assay: Survival of mice under severe energy restriction (40% DR); type: in vivo; settings: for survival time: Kaplan Meir log rank p<0.05
Method: Severe energy restriction leads to deterioration of neural function and eventually death. Since leptin can improve cognitive function following DR to 40% and prevents neural apoptosis, it was investigated whether it may also promote mice survival under these same severe conditions. In the first experiment, mice were fed ad libitum or DR to 40% for 12 days and injected daily with 1 mg/kg leptin or saline during the second week (5 days). 95% of the mice survived with leptin treatment compared to 65% in the control group (p<0.05). In a second experiment, mini-osmotic pumps delivering 0.05 mg/kg/h leptin or saline continuously for 16 days were implanted in mice under 40% DR (12 animals in each group). […] The 50% survival in the treated group increased from 9 to 14 days. (FIG. 5).

[3] = tested on: mice; assay: Eight-arm maze, mice ad libitum or diet restricted; type: in vivo; settings: 1 mg/kg leptin daily for 5 days
Method: Control mice received food ad-libitum. Diet-restricted mice received a diet of 57 kCal/week/mouse (2.16 g/day/mouse) as 60% of the requirement, or 38 kCal/week/mouse (1.44 g/day/mouse) for 40%/DR. DR was carried out for 10 days. Behavioral test was performed using the eight-arm spatial maze during the second week of experiment. […] Mice were sacrificed by decapitation after the behavioral tests and the hippocampi were frozen at −70° C. The animals were placed in an eight-arm maze, which is a scaled-down version of that developed for rats (Randt et al, (1971) Science 172, 489-499; Ziv et al (1994) Neuroscience Lett, 170, 136-140). […] The mice were tested until they made entries into all eight arms or until they completed 24 entries, whichever came first. […] Maze performance was calculated each day for five consecutive days. Results were presented as area under the curve (AUC) utilizing the formula: (day 2+day 3+day 4+day 5)−4*(day 1).

[4] = tested on: mice; assay: Activity index in TAA model of hepatic encephalopathy; type: in vivo; settings: TAA treated mice, 1 mg/kg Leptin daily for 5 days
Method: FIG. 10. […] Mice were treated with TAA, then 1 mg/kg Leptin was administrated daily for 5 days and activity index was evaluated.
Mice were treated with TAA to cause an experimental hepatic encephalopathy-brain damaged caused by liver dysfunction and common in people whose liver function deteriorates. The activity index of the animals was assessed. […] FIG. 11.

[5] = tested on: mice; assay: Morris Water Maze in diet-restricted mice; type: in vivo; settings: leptin 1 mg/kg daily; data not shown
Method: The effects of leptin administration (restoration) on neural function in diet-restricted mice was investigated. Mice were assigned at random to 4 groups. The groups were kept under ad libitum or DR to 40% for 10 days and injected daily with either 1 mg/kg leptin or saline for 5 days during the second week. […] Cognitive performance improvement was also observed in the Morris Water Maze (data not shown). Then the effects on the concentrations of NE and dopamine in the hippocampus were evaluated. […] To elucidate the cellular mechanisms involved in leptin effects, proteins associated with apoptosis were determined by immunoblotting. Leptin induced up-regulation of bcl-2 while reducing Bax levels. […] The anti-apoptotic effect of leptin was further confirmed by detection of activated caspase-3 expression as ?of apoptotic cell death. Activated caspase-3 could not be detected in the hippocampi of control animals.

[6] = tested on: norepinephrine and dopamine in the hippocampus; assay: Hippocampal catecholamine measurements (HPLC-ECD); type: in vivo, mice; settings: 1 mg/kg leptin daily
Method: Control mice received food ad-libitum. Diet-restricted mice received a diet of 57 kCal/week/mouse (2.16 g/day/mouse) as 60% of the requirement, or 38 kCal/week/mouse (1.44 g/day/mouse) for 40%/DR. DR was carried out for 10 days. Behavioral test was performed using the eight-arm spatial maze during the second week of experiment. During the behavioral tests, half of the animals in each group were injected intraperitoneally (i.p) with AICAR (1-2 mM equal to 258-516 mg/kg) or leptin (1 mg/kg) and the other half with saline. Mice were sacrificed by decapitation after the behavioral tests and the hippocampi were frozen at -70° C. Catecholamines were measured as described previously ([…] et al (1996), Brain Res. 732, 133-144. The assays for dopamine and NE were performed by HPLC separation and detection using HPLC-ECD. Values are presented as a concentration (ng/mg tissue).

[7] = tested on: mice; assay: Mortality in TAA model of hepatic encephalopathy; type: in vivo; settings: mice ad libitum or DR to 40%, with or without leptin
Method: Mice were maintained on Ad Librium or DR to 40% conditions. TAA was administered with or without leptin. Treated mortalilty rate was recorded everyday.

B1: leptin: Murine leptin provided by A. Gertler; adipokine hormone, full leptin is a 146 amino acid sequence (protein, UniProt P41160 22-167, looked up)
Leptin: VPIQKVQDDTKTLIKTIVTRINDISHTQSVSAKQRVTGLDFIPGLHPILSLSKMDQTLAVYQQVLTSLPSQNVLQIANDLENLRDLLHLLAFSKSCSLPQTSGLQKPESLDGVLEASLYSTEVVALSRLQGSLQDILQQLDVSPEC
cognitive function in the eight arm maze [1]: reversed impaired cognitive function
50% survival ([2]; 40% DR, mini-osmotic pump 0.05 mg/kg/h leptin for 16 days, 9 days with saline): 14 days
survival time ([2]; 40% DR, mini-osmotic pump 0.05 mg/kg/h leptin for 16 days): survived significantly longer
survival time ([2]; 40% DR, mini-osmotic pump 0.05 mg/kg/h leptin for 16 days, listed as Leptin): increases survival
mice survived ([2]; DR to 40% for 12 days, 1 mg/kg leptin daily during second week (5 days), 65% in control group, p<0.05): 95%
eight-arm maze performance ([3]; DR to 40%): reversed the impaired eight-arm maze performance
eight-arm maze performance ([3]; ad libitum control group): not affected
activity index [4]: reverse activity in diseased animals to the level of health controls; also recorded: reversed activity to control level
cognitive performance in the Morris Water Maze [5]: improvement
dopamine concentrations in the hippocampus ([6]; AL group): down-regulated
dopamine concentrations in the hippocampus ([6]; DR group (40%)): did not induce any significant reduction
NE concentration in the hippocampus ([6]; DR to 40%): reversed the reduction of NE
mortality [7]: decreases mortality
mortality ([7]; listed as Leptin): decreased mortality
